Experiment [1] concerns the target DENV3 (Philippines) virion (Dengue virus 3 Philippines (H87/1956 …, UniProt P27915)). The experiment can be described thus: ELISA; virion capture ELISA: virions captured on plates coated with 4G2 antibody; purified mAbs in 5-fold serial dilutions from 100 ug/mL, 1 hour at 37°C; HRP anti-human Ig; OD450. Particulars: one partner purified.
The next experiment deals with T1, DENV1 (Hawaii) virion (Dengue virus 1 Hawaii (BEI NR-82), UniProt B5AGU1, strain).
T1 construct: also called DENV1 (Hawaii NR-82)
Described as above. Particulars: one partner purified.

The target in experiment [2] is DENV2 (New Guinea C) virion (Dengue virus 2 New Guinea C, UniProt P14340, strain). The description is as above. As to conditions: one partner purified.
The target in experiment [3] is T2, whole Zika PRVABC59 virion (Zika virus PRVABC59, UniProt A0A0X1LH65, strain).
T2 construct: also called ZIKV PRVABC59; whole ZIKV virion; source: ZIKV PRVABC59 from BEI, grown in Vero-81 cells, filtered cell supernatant
The experiment is described as above. Particulars: one partner purified.

A further experiment has as its target DENV4 (H241) virion (Dengue virus 4 H241, UniProt Q58HT7, strain). Described as above. As to conditions: one partner purified.
For experiment [4], the target named is T3, ZIKV H/PF/2013 envelope (E) protein monomer (Zika virus H/PF/2013, UniProt A0A024B7W1, strain).
T3 construct: also called ZIKV E monomer
The experiment can be described thus: ELISA; recombinant E protein ELISA: DH1017 mAbs immobilised at 0.5 ug/mL in TBS; his-tagged recombinant E protein in 2-fold dilutions from 20 ug/mL, 1 hour at 37°C; anti-his HRP; OD450. As to conditions: both partners purified.

The target of experiment [5] is T4, ZIKV H/PF/2013 envelope (E) protein dimer (Zika virus H/PF/2013, UniProt A0A024B7W1, strain).
T4 construct: also called ZIKV E dimer; his-tagged recombinant E protein dimer; source: recombinant
The experiment is described as above. As to conditions: both partners purified.

The target in the next experiment is Jo-1 (Bos taurus (assumed), UniProt Q2KI84). As to the kind of experiment: ELISA; autoantigen ELISA: purified antigens coated in 0.1M sodium bicarbonate; mAbs in 3-fold serial dilutions from 10 ug/ml, 1 hour at room temperature; HRP anti-human IgG, IgM and H+L. Particulars: both partners purified. In general terms: ELISA stands for enzyme-linked immunosorbent assay.
Jo-1, sequence (P12081 whole entry): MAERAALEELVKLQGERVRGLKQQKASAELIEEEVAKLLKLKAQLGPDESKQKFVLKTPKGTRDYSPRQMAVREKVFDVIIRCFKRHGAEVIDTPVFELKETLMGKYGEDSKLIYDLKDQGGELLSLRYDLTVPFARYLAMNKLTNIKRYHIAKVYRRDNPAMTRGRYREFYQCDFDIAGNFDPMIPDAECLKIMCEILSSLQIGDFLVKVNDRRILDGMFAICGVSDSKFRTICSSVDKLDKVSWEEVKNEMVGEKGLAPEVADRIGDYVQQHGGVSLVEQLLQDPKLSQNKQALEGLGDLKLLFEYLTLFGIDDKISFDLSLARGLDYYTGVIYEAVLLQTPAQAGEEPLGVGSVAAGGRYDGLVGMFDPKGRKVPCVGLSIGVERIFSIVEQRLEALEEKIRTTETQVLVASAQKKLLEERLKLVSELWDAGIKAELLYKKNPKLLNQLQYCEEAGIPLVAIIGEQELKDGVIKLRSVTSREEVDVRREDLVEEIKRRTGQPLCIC

In another experiment the target is T5, Centromere B (Homo sapiens, UniProt P07199).
T5 construct: source: bought: Prospec, PRO-390
T5 sequence (P07199 whole entry): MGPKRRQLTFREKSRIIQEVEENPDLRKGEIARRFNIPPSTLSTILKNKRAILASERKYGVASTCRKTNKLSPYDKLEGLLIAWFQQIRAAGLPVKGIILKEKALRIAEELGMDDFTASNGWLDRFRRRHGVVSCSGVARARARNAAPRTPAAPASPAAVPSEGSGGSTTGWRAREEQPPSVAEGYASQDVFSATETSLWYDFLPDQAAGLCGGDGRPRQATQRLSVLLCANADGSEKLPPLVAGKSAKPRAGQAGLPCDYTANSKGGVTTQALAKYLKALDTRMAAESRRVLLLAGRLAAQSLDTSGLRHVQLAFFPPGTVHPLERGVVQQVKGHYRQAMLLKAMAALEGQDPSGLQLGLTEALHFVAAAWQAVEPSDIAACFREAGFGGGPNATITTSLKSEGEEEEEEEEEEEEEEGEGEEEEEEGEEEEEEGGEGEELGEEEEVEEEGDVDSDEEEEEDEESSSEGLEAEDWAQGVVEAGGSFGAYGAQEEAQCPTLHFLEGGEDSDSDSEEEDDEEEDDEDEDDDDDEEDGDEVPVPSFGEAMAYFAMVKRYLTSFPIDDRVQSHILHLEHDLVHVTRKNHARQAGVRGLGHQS
The experiment is described as above. As to conditions: both partners purified.

Another experiment deals with T6, Scl-70 (Bos taurus (assumed), UniProt A0AAA9TV68).
T6 construct: source: bought: Immunovision, SCL-3000
T6 sequence (P11387 whole entry): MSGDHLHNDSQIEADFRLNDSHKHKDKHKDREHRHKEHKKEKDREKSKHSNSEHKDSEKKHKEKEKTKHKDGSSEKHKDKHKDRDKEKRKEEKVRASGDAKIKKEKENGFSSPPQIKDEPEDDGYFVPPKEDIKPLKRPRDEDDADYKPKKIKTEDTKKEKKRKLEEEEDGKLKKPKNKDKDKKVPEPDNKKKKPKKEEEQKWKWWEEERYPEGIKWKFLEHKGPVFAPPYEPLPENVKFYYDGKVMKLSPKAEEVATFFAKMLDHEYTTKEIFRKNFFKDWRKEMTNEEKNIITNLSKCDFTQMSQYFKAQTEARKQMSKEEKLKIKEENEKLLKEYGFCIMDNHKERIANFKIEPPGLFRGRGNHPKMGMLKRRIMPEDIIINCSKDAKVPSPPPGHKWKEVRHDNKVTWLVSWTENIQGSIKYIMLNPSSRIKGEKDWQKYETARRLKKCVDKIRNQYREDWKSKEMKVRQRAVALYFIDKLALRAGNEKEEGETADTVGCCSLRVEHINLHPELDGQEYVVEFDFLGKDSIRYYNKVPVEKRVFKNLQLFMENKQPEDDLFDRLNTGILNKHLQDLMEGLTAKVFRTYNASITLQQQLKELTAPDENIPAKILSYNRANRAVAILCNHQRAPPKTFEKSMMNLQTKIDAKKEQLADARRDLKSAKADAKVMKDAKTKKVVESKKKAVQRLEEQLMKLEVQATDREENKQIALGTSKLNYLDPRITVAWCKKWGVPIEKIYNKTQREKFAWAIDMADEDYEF
The description is as above. Particulars: both partners purified.

The target in the next experiment is T7, SSB (Bos taurus (assumed), UniProt P10881).
T7 construct: source: bought: Immunovision, SSB-3000
T7 sequence (P05455 whole entry): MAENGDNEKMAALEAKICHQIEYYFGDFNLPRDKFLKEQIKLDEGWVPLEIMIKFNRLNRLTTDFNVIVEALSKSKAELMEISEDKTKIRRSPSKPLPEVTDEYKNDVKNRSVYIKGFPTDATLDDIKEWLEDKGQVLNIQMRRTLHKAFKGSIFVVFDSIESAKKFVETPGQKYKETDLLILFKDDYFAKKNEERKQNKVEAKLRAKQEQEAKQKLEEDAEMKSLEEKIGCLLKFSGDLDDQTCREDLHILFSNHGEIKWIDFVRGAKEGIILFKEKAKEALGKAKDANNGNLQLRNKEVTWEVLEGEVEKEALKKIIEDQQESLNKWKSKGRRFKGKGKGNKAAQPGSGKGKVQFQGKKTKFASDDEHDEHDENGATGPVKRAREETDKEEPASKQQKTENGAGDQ
Described as above. As to conditions: both partners purified.

Experiment [6] concerns the target T4, ZIKV H/PF/2013 envelope (E) protein …. As to the kind of experiment: BLI; Octet Red96, 25°C, PBS pH 7.4; mAb captured on anti-human Ig AR2G tips; ZIKV E protein dimer 50-0.78 ug/mL; fast kinetic components of the heterogeneous ligand model fit; single measurement. As to conditions: both partners purified. A general note: Biolayer interferometry detects binding as a change in optical thickness at a sensor tip.

Another experiment addresses T8, ZIKV H/PF/2013 virion (Zika virus H/PF/2013, strain).
T8 construct: also called ZIKV H/PF/2013 particles; Zika virion; copies: 180 +
The experiment can be described thus: cryo-EM structure; purified virus and DH1017.Fab incubated on ice for 2 hours; single particle reconstruction with icosahedral symmetry, 4104 particles, 5.3 Å. Particulars: both partners purified.

One may read the EC50 as the concentration needed to bring the measured effect to its halfway point. One may read the Kd as a measure of binding affinity in units of concentration. Read a low Kd as higher affinity. By koff is commonly meant a measure of how fast the partners let go of each other. The low end stands for a long-lived complex, the high end for a short-lived complex. Broadly, the stoichiometry N is a count of units in the complex or per binding partner.

B1: DH1017.IgM (antibody, V domains shown)
VH: QVQLQESGPGLVKPSQTLSLTCAVSGGSISSGDSYWSWIRQHPGKGLEWIGSIYYSGSTYYNPSLKSRVTIPIDTSKNQFSLKLSSVTAADTAVYYCARHVGDLRVNDAFDIWGQGTMVTVSS
VL: QSVLTQPPSVSAAPGQKVTISCSGSSSNIGNNFVSWYQRLPGTPPKLLIYDSDKRPSGIPDRFSGSKSGTSATLGITGLQTGDEGDYYCGTWDRSLSVVVFGGGTKLTVL
notes: also called mAb DH1017.IgM; copies: 10 + 10
B1: the binding result is reported as “no binding (tested: 100 ug/mL (start of the dilution series))” in experiment [1]; “no binding (tested: 100 ug/mL (start of the dilution series))” with DENV1 (Hawaii) virion; “no binding (tested: 100 ug/mL (start of the dilution series))” in experiment [2]; “no binding (tested: 100 ug/mL (start of the dilution series))” with DENV4 (H241) virion; “no binding (tested: 10 ug/ml (start of the dilution series))” with Jo-1; “no binding (tested: 10 ug/ml (start of the dilution series))” in the experiment with Centromere B. For the same molecule, the binding result with Scl-70 and with SSB was “no binding (tested: 10 ug/ml (start of the dilution series))” throughout. For the same molecule, the concentration for a half-maximal effect (EC50) in experiment [3] turned out to be 0.022 nM; in [4], 0.202 nM; in experiment [5] it was 0.091 nM. The molecule further gave a Kd in [6] of 106 nM. Besides, the dissociation rate constant (koff) in [6] turned out to be 0.0103 s⁻¹.

B2: DH1017.IgG (antibody, V domains shown)
VH: QVQLQESGPGLVKPSQTLSLTCAVSGGSISSGDSYWSWIRQHPGKGLEWIGSIYYSGSTYYNPSLKSRVTIPIDTSKNQFSLKLSSVTAADTAVYYCARHVGDLRVNDAFDIWGQGTMVTVSS
VL: QSVLTQPPSVSAAPGQKVTISCSGSSSNIGNNFVSWYQRLPGTPPKLLIYDSDKRPSGIPDRFSGSKSGTSATLGITGLQTGDEGDYYCGTWDRSLSVVVFGGGTKLTVL
notes: IgG1; also called recombinant DH1017.IgG; IgG1 isoform of DH1017; source: Expi 293i cells, co-transfected heavy and light chain plasmids, purified (Protein A resin)
Consider B2, for which the concentration for a half-maximal effect (EC50) in experiment [3] came to 0.112 nM; in experiment [4] it was 0.463 nM; in experiment [5] it was 0.929 nM. Also, the binding result in the experiment with Jo-1, in the experiment with Centromere B, with Scl-70 and in the experiment with SSB was “no binding (tested: 10 ug/ml (start of the dilution series))” each time. The same molecule returned a Kd in [6] of 123 nM. This molecule also showed a dissociation rate constant (koff) in experiment [6] of 0.0091 s⁻¹.

B3: DH1017.Fab (Fab, V domains shown)
VH: QVQLQESGPGLVKPSQTLSLTCAVSGGSISSGDSYWSWIRQHPGKGLEWIGSIYYSGSTYYNPSLKSRVTIPIDTSKNQFSLKLSSVTAADTAVYYCARHVGDLRVNDAFDIWGQGTMVTVSS
VL: QSVLTQPPSVSAAPGQKVTISCSGSSSNIGNNFVSWYQRLPGTPPKLLIYDSDKRPSGIPDRFSGSKSGTSATLGITGLQTGDEGDYYCGTWDRSLSVVVFGGGTKLTVL
notes: also called DH1017 Fab fragment; Fab DH1017; source: Expi 293i cells, co-transfected heavy and light chain plasmids, purified (LambdaFabSelect agarose beads)
Consider B3, for which the figures for the EC50 in [4] and in [5] were 1.24 nM and 25.1 nM, respectively. The binding result in the experiment with Jo-1, in the experiment with Centromere B, with Scl-70 and with SSB was “no binding (tested: 10 ug/ml (start of the dilution series))” throughout. The “stoichiometry N” value with ZIKV H/PF/2013 virion came out at 1.5 Fab per asymmetric unit.
